The labels stand for the following.
B1: recombinant human type II IL-1R:Fc (Fc fusion)
chain: FTLQPAAHTGAARSCRFRGRHYKREFRLEGEPVALRCPQVPYWLWASVSPRINLTWHKNDSARTVPGEEETRMWAQDGALWLLPALQEDSGTYVCTTRNASYCDKMSIELRVFENTDAFLPFISYPQILTLSTSGVLVCPDLSEFTRDKTDVKIQWYKDSLLLDKDNEKFLSVRGTTHLLVHDVALEDAGYYRCVLTFAHEGQQYNITRSIELRIKKKKEETIPVIISPLKTISASLGSRLTIPCKVFLGTGTPLTTMLWWTANDTHIESAYPGGRVTEGPRQEYSENNENYIEVPLIFDPVTREDLHMDFKCVVHNTLSFQTLRTTVKE
notes: also called human IL-1RII:Fc; soluble recombinant human type II IL 1R:Fc; not shown: Fc portion of human IgG
B2: human IL-1α (ligand, UniProt P01583 113-271, looked up)
chain: SAPFSFLSNVKYNFMRIIKYEFILNDALNQSIIRANDQYLTAAALHNLDEAVKFDMGAYKSSKDDAKITVILRISKTQLYVTAQDEDQPVLLKEMPEIPKTITGSETNLLFFWETHGTKNYFTSVAHPNLFIATKQDYWVCLAGGPPSITDFQILENQA
notes: also called IL-1 alpha
B3: cynomolgus IL-1ra (ligand, cynomolgus macaque, UniProt Q866R8 26-177, looked up)
chain: RPSGRKPSKMQAFRIWDVNQKTFYLRNNQLVAGYLQGPNVNLEEKIDVVPIEPHALFLGIHGGKMCLSCVKSGDETRLQLEAVNITDLSKNRKQDKRFAFVRSDSGPTTSFESAACPGWFLCTAMEADQPVSLTNMPDKGVMVTKFYFQEDE
notes: also called cynomolgus macaque IL-1 receptor antagonist
B4: cynomolgus IL-1α (ligand, cynomolgus macaque, UniProt P79340 113-271, looked up)
chain: SAPFSFLSNMTYHFIRIIKHEFILNDTLNQTIIRANDQYLTAAAIHNLDEAVKFDMGAYTSSKDDTKVPVILRISKTQLYVSAQDEDQPVLLKEMPEIPKTITGSETNFLFFWETHGTKNYFISVAHPNLFIATKHDNWVCLAKGLPSITDFQILENQA
notes: also called cynomolgus macaque IL-1α

Assay [1] has as its target cynomolgus IL-1β (cynomolgus macaque) (UniProt P79182). Description: SPR, BIACORE 3000, both Fc fusions captured, ligand in flow. Background: In SPR one partner is held on a chip, and binding of the other changes the refractive index at the surface.
Assay [2] deals with recombinant rhesus IL-1β (rhesus) (UniProt P48090). As to the kind of experiment: cell-based or functional assay.
In assay [3] the target is recombinant rhesus IL-1α (rhesus) (UniProt P48089). As to the kind of experiment: cell-based or functional assay.
In the assay “human IL-1α” the target is B2. Description: SPR, BIACORE 3000, receptor:Fc captured on anti-human IgG Fc, ligand in flow, 25 C, without IL-1AcP. Here is the method:
(§1) The relative ability of purified soluble type II IL-1R to bind IL-1α, IL-1β and IL-1ra was measured using a BIACORE 3000 instrument with a research grade CM5 sensor chip at 25 degrees C. Soluble recombinant human type II IL-1R was fused to the Fc portion of human IgG so that the resulting type II IL-1R:Fc construct could be bound to a goat anti-human IgG, Fc chain-specific antibody immobilized to the chip using standard amine coupling chemistry. A similar construct was made using IL-1AcP for the same reason. When IL-1AcP:Fc was used in combination with type II IL-1R:Fc, it was mixed in a 1:1 molar ratio before injection into the BIACORE 3000. Kinetic data were obtained by running a range of concentrations of IL-1α, IL-1β, and IL-1 ra over a flow cell that contained receptor bound to immobilized antibody, and a reference cell of immobilized antibody alone. […] In the presence of human IL-1AcP:Fc, the apparent equilibrium binding constants of human type II IL-1R:Fc for human IL-1α and IL-1β were increased >100-fold over those measured in the absence of human IL-1AcP. Human IL-1AcP:Fc slowed the dissociation rates of both ligands by 100-fold. In contrast, human IL-1AcP:Fc had little effect on the affinity of human IL-1RII:Fc for human IL-1ra. In the absence of receptor, no binding of human IL-1α, IL-1β, and IL-1ra to human IL-1AcP:Fc was detected.

Assay [4] addresses T1, recombinant human IL-1 receptor Accessory Protein (AcP):Fc (human, UniProt Q9NPH3 21-359).
T1 construct: also called human IL-1AcP:Fc; soluble recombinant human IL-1AcP:Fc
T1 sequence: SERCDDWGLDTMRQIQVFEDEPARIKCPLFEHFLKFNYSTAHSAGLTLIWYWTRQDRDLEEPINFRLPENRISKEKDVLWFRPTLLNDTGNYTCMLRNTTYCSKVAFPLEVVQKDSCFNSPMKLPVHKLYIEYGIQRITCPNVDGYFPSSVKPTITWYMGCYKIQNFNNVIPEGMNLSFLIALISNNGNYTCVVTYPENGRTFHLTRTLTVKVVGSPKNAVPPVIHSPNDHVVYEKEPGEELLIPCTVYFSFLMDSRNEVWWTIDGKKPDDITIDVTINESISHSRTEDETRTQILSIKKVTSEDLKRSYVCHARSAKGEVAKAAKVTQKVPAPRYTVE
As to the kind of experiment: SPR, BIACORE 3000, Fc fusion captured on anti-human IgG Fc, ligand in flow. Here is the method:
as §1

In assay [5] the target is B1. As to the kind of experiment: SPR, BIACORE 3000, receptor:Fc captured, ligand in flow, without cynomolgus IL-1AcP.

cynomolgus IL-1β (cynomolgus macaque), sequence (P79182 117-268 limits assumed): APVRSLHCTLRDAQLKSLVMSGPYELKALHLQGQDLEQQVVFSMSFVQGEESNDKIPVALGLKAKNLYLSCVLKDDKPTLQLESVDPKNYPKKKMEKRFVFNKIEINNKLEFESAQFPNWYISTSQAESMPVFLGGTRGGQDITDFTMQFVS
recombinant rhesus IL-1β (rhesus), sequence (P48090 117-269 limits assumed): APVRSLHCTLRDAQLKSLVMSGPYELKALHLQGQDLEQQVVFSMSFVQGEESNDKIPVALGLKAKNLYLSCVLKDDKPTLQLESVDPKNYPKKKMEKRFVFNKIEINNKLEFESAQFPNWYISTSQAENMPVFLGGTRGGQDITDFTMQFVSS

Take “human type II IL-1R:Fc in the presence of cynomolgus IL-1AcP:Fc (from UniProt A0A7N9CMI5 18-336)”: in assay [1], the Ka came out at 1.8e+08 M⁻¹ and the fold increase of apparent affinity over that without IL-1AcP was > 100 fold.

As to “soluble IL-1R Type II in the presence of IL-1RAcP (from UniProt P27930 14-343; Q9NPH3 21-367)”, the NF-κB luciferase reporter activity in COS7 cells was found to be 25 fold in assay [2] and 25 times in assay [3].

For the molecule B1, in the assay with human IL-1α, the “fold lower affinity than for human IL-1β” value was found to be 100 fold. Take B2: the binding result in assay [4] is given as “no binding”. As for B3, the Ka in assay [5] is 6.2e+07 M⁻¹. The same measure, in the same setting: the value for B4 was 1.4e+06 M⁻¹.

(Values after US20030049255A1 (published 2003).)
